One test has as its target MLL4_(PHD2/3) E292K (human, UniProt O14686 227-324, E292K).
A further test deals with T1, MLL3_(PHD2/3) D372N (human, UniProt Q8NEZ4 342-439, D372N).
T1 sequence: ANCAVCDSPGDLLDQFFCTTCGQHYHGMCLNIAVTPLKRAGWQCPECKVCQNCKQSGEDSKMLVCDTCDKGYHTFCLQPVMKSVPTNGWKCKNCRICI

The target in another test is T2, MLL3_(PHD2/3) D372K (human, UniProt Q8NEZ4 342-439, D372K).
T2 sequence: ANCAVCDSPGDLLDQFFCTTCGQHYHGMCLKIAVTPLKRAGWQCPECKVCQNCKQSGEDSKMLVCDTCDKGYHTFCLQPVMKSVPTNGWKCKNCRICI

The target in the next test is T3, MLL3_(PHD2/3) E387Q (human, UniProt Q8NEZ4 342-439, E387Q).
T3 sequence: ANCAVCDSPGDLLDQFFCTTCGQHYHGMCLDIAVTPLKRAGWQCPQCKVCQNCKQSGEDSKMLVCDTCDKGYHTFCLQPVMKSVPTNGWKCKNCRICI

In test [1] the target is T4, MLL3_(PHD2/3) D400K (human, UniProt Q8NEZ4 342-439, D400K).
T4 sequence: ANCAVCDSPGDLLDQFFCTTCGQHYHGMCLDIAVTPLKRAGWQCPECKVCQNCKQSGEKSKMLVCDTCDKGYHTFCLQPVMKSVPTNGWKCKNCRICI

For test [2], the target named is T5, MLL3_(PHD2/3) D400K (human, UniProt Q8NEZ4 342-439, D400K).
T5 construct: human MLL3 (KMT2C), aa 342-439; source: E. coli BL21-CodonPlus, purified as WT
T5 sequence (looked up): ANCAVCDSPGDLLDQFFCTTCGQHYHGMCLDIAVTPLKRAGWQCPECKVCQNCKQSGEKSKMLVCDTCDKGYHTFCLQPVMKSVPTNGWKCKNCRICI
Briefly: not stated; fluorescence spectroscopy or NMR: the legends of Fig. 3c and Fig. 4b say that values marked (a) are from NMR and the others from fluorescence; the text does not tell which for these pairs. The settings on record: both partners purified.

The source of these data is PMC11161652, “ASXLs binding to the PHD2/3 fingers of MLL4 provides a mechanism for the recruitment of BAP1 to active enhancers” (Nature Communications, 2024).

The term Kd denotes a measure of binding affinity in units of concentration.

B1: ASXL2 peptide (residues 650-670 of ASXL2) (peptide, UniProt Q76L83 650-670, looked up)
peptide: NRTGARTLADIKAKAQLVKAQ
notes: also called ASXL2 (aa 650-670); MBH of ASXL2; source: synthetic peptide (SynPeptide)
Turning to B1, the dissociation constant Kd stood at 10 µM with MLL4_(PHD2/3) E292K; 9 µM in the test with MLL3_(PHD2/3) D372N; 55 µM with MLL3_(PHD2/3) D372K; 6 µM in the test with MLL3_(PHD2/3) E387Q; 540 µM in the test with MLL3_(PHD2/3) D400K [1]. Further, the “fold reduction in binding against wild type MLL3_(PHD2/3)” value with MLL3_(PHD2/3) D400K [2] was 400 fold.
